The test system of one experiment is adenomyosis lesions. The experiment can be described thus: Adenomyosis complication in surgically-induced endometriosis monkey models. As to conditions: one case per group, compared to the vehicle group (FIG. 37). Type of experiment: in vivo, cynomolgus monkeys. From the text:
After the final laparoscopic observation six months after the start of antibody administration in surgically-induced endometriosis monkey models, the uteri collected during autopsy were fixed with 10% neutral buffered formalin and HE-stained for observation. Endometrial tissues analogous to those of adenomyosis were strongly seen in the uterus in one case of the vehicle group as well as in one case of the antibody administration group. […] Thus, the monkeys were considered as being a human adenomyosis complication model, and the endometrial tissues in the myometria of these single cases were compared.

The test system of another experiment is post-surgical adhesion. The experiment in a line: Post-surgical adhesion-induced monkey model. Type of experiment: in vivo, cynomolgus monkeys. Details: key: ○: Adhesion found; x: No adhesion. As to conditions: 10 mg/kg i.v. one hour or less after surgery, laparoscopy 24 to 35 days later; individuals #201, #206. The method, then:
To prepare a post-surgical adhesion-induced model, female cynomolgus monkeys 9 to 16 years of age (provided by the Tsukuba Primate Research Center at the National Institutes of Biomedical Innovation, Health and Nutrition) were treated under anesthesia as follows. Anesthesia was performed using balanced anesthesia of ketamine/xylazine (mixed at an adequate ratio of about 2:1) and isoflurane. An incision of 5 to 6 cm was made in the median line of the abdominal wall. After opening the abdomen, a 1-cm incision was made on the uterine corpus and sutured with 4 stitches using a single suture. Then, the whole uterus was brushed five times with gauze. Next, a 1-cm incision was made to the right abdominal wall peritoneal part at 2 cm from the incised median line of the abdominal wall and sutured by running suture with 4 stitches using an absorbable suture. After suture, the sutured part was brushed five times with gauze. Likewise, the peritoneum of left abdominal wall was incised, sutured, and brushed with gauze. Finally, the median line of abdominal wall was sutured by running suture with 10 to 11 stitches. The entire steps were completed in one hour or less. The antagonist Antisedan (in roughly the same amount as that of xylazine) and the antibiotic cephradine were administered at the time of awakening after surgery. Then, the pain reliever Zalban was administered for two days after surgery, and the monkeys were observed regularly every day to confirm the absence of post-surgical abnormalities. At laparoscopic observation, anesthesia and post-surgical monitoring were also performed in the same way.
The control group was untreated. 24 to 35 days after administration of the anti-IL-8 antibody, laparoscopy was performed to observe the adhesion formed due to incision, suture, and blushing with gauze. The abdomen was incised in the median line under anesthesia, and laparoscopic observation was performed by inserting a trocar and then introducing a laparoscope. The laparoscope was connected to a video system (KARL STORZ) and a monitor. The video system was used for recording, and the monitor was used for intraperitoneal observation. The size of the adhesion was measured using a graduated bar or graduated forceps. The presence, range, and location of adhesion were assessed during laparoscopic observation. […] Although adhesion was found in individual No. 206 in the anti-IL-8 antibody administration group, no adhesion was found in the right and left abdominal wall peritoneum or at the uterine incision site in individual No. 201. […] Those skilled in the art will naturally appreciate that anti-IL-8 antibodies may exert a stronger adhesion formation-preventive effect by appropriately altering the timing of administration or such. […]

B1: H1009/L395-F1974m: H1009-F1974m (SEQ ID NO:36) heavy chain, L395-kOMT light chain; the anti-IL-8 antibody of Table 29 (antibody)
heavy: QVQLVESGGGLVQPGGSLRLSCAASGFTFSDYYLSWVRQAPGKGLEWVGLIRNKDNYHTPEYSASVKGRFTISRDDSKNSLYLTMSDLKTEDTAVYYCARENHRYDVELAYWGQGTLVTVSSASTKGPSVFPLAPSSKSTSGGTAALGCLVKDYFPEPVTVSWNSGALTSGVHTFPAVLQSSGLYSLSSVVTVPSSSLGTQTYICNVNHKPSNTKVDKKVEPKSCDKTHTCPPCPAPELRRGPSVFLFPPKPKDTLMISRTPEVTCVVVDVSHEDPEVKFNWYVDGVEVHNAKTKPREEQYNSTYRVVSVLTVLHQDWLNGKEYKCKVSNKGLPSSIEKTISKAKGQPREPQVYTLPPSREEMTKNQVSLTCLVKGFYPSDIAVEWESNGQPENNYKTTPPVLDSDGSFFLYSKLTVDKSRWQQGNVFSCSVLHEALHAHTTRKELSLSP
light: DIQMTQSPSSLSASVGDRVTITCRASEIIYSYLAWYQQKPGKAPKLLIYKAKTHADGVPSRFSGSGSGTDFTFTISSLQPEDIATYYCKHHFGFPRTFGQGTKVEIKRTVAAPSVFIFPPSDEQLKSGTASVVCLLNNFYPREAKVQWKVDNALQSGNSQESVTEQDSKDSTYSLSSTLTLSKADYEKHKVYACEVTHQGLSSPVTKSFNRGEC
On to B1, for which the “histopathology of adenomyosis lesions in the uterus (HE staining)” value in the experiment with adenomyosis lesions was “atrophy of endometrial epithelia in the adenomyosis lesions as well as reduction and atrophy of stromal cells were observed”. Further, in the experiment with post-surgical adhesion, the “adhesion at incision site: Abdominal wall Median line” value is given as “○”; the “adhesion at incision site: Peritoneum (L)” value is “○ and x”; the “adhesion at incision site: Peritoneum (R)” value was “○ and x”; the “adhesion at incision site: Uterus” value was “○ and x”.

The values above are taken from patent US20240083996A1, “COMPOSITION FOR PROPHYLAXIS OR TREATMENT OF IL-8 RELATED DISEASES” (Chugai Seiyaku Kabushiki Kaisha, priority 2016, published 2024).
